Tests used:
Assay in all cases: ELISA signal over HTRF expression signal, P. pastoris
Settings in all cases: remark: other sources report otherwise
[1] = biological target: 48D11
[2] = biological target: 51G3
[3] = biological target: 74H9
[4] = biological target: 71A4
[5] = biological target: 79D5
[6] = biological target: 63D3
[7] = biological target: 58A5
[8] = biological target: 84D3
[9] = biological target: 27B10
[10] = biological target: 71D3
[11] = biological target: 66C8
[12] = biological target: 50G10
[13] = biological target: 61A9
[14] = biological target: 11F4
[15] = biological target: 55G7
[16] = biological target: 72D4

B1: CR6261 (antibody, V domains shown)
VH: EVQLVESGAEVKKPGSSVKVSCKASGGPFRSYAISWVRQAPGQGPEWMGGIIPIFGTTKYAPKFQGRVTITADDFAGTVYMELSSLRSEDTAMYYCAKHMGYQVRETMDVWGKGTTVTVSS
VL: QSVLTQPPSVSAAPGQKVTISCSGSSSNIGNDYVSWYQQLPGTAPKLLIYDNNKRPSGIPDRFSGSKSGTSATLGITGLQTGDEANYYCATWDRRPTAYVVFGGGTKLTVLG
fold increase of ratio over parental SEQ ID NO: 6 [1]: 2.98
ratio (binding signal/HTRF signal) [1]: 17.7
fold increase of ratio over parental SEQ ID NO: 6 [2]: 9.97
ratio (binding signal/HTRF signal) [2]: 59.2
fold increase of ratio over parental SEQ ID NO: 6 [3]: 6.09
ratio (binding signal/HTRF signal) [3]: 36.1
fold increase of ratio over parental SEQ ID NO: 6 [4]: 10.2
ratio (binding signal/HTRF signal) [4]: 60.5
fold increase of ratio over parental SEQ ID NO: 6 [5]: 8.46
ratio (binding signal/HTRF signal) [5]: 50.2
fold increase of ratio over parental SEQ ID NO: 6 [6]: 1.87
ratio (binding signal/HTRF signal) [6]: 11.1
fold increase of ratio over parental SEQ ID NO: 6 [7]: 3.69
ratio (binding signal/HTRF signal) [7]: 21.9
fold increase of ratio over parental SEQ ID NO: 6 [8]: 4.87
ratio (binding signal/HTRF signal) [8]: 28.9
fold increase of ratio over parental SEQ ID NO: 6 [9]: 2.75
ratio (binding signal/HTRF signal) [9]: 16.3
fold increase of ratio over parental SEQ ID NO: 6 [10]: 5.67
ratio (binding signal/HTRF signal) [10]: 33.7
fold increase of ratio over parental SEQ ID NO: 6 [11]: 2.29
ratio (binding signal/HTRF signal) [11]: 13.6
fold increase of ratio over parental SEQ ID NO: 6 [12]: 4.7
ratio (binding signal/HTRF signal) [12]: 27.9
fold increase of ratio over parental SEQ ID NO: 6 [13]: 5.94
ratio (binding signal/HTRF signal) [13]: 35.3
fold increase of ratio over parental SEQ ID NO: 6 [14]: 2.54
ratio (binding signal/HTRF signal) [14]: 15.1
fold increase of ratio over parental SEQ ID NO: 6 [15]: 11.8
ratio (binding signal/HTRF signal) [15]: 70.3
fold increase of ratio over parental SEQ ID NO: 6 [16]: 6.25
ratio (binding signal/HTRF signal) [16]: 37.1

From patent US20170209564A1
